From the supplement of paper PMC5998384 come the findings set out here.

The test system of series [1] is HeLa Kyoto. Description: solubility in G1/S (NP-40 vs SDS abundance) (log2 ratio); higher = more soluble. The conditions noted are these: cell cycle stage: G1/S.
Series [2] relates to HeLa Kyoto. Description: solubility change mitosis vs G1/S (difference of NP-40 vs SDS log2 ratios) (log2 ratio difference); higher = more soluble in mitosis.
Series [3] concerns HeLa Kyoto. Description: thermal stability score vs G1/S (z-score of summed log2 fold changes over temperatures); higher = more thermally stable than in G1/S.
Setting [4] is: cell cycle stage: early G1 (4.5 h after nocodazole release).
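For solubility change mitosis vs G1/S (difference of NP-40 vs SDS log2 ratios) in this document: synchronized HeLa Kyoto cells (double thymidine block for G1/S, nocodazole release for mitosis), protein amounts in NP-40 versus SDS lysates quantified by mass spectrometry, three biological replicates.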
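For solubility in G1/S (NP-40 vs SDS abundance) in this document: HeLa Kyoto cells arrested at G1/S by double thymidine block, proteins quantified by TMT10plex mass spectrometry in mild NP-40 versus SDS extracts, three biological replicates.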
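For thermal stability score vs G1/S (z-score of summed log2 fold changes over temperatures) in this document: synchronized HeLa Kyoto cells, proteins quantified by TMT10plex mass spectrometry, three biological replicates, mitosis taken 0.5 h after nocodazole release, G1/S directly after double thymidine block.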

In the case of “MFSVLSYGRLVARAVLGGLSQTDPRAGGGGGGDYGLVTAGCGFGKDFRKGLLKKGACYGDDACFVARHRSADVLGVADGVGGWRDYGVDPSQFSGTLMRTCERLVKEGRFVPSNPIGILTTSYCELLQNKVPLLGSSTACIVVLDRTSHRLHTANLGDSGFLVVRGGEVVHRSDEQQHYFNTPFQLSIAPPEAEGVVLSDSPDAADSTSFDVQLGDIILTATDGLFDNMPDYMILQELKKLKNSNYESIQQTARSIAEQAHELAYDPNYMSPFAQFACDNGLNVRGGKPDDITVLLSIVAEYTD [PPTC7]”, the “solubility in G1/S (log2)” value in the series with HeLa Kyoto [1] is -0.0546. Moreover, the “solubility change mitosis (log2)” value in the series with HeLa Kyoto [2] was -0.0876. Besides, the thermal stability score is -1.55 in the series on HeLa Kyoto [3] (setting [4]) and -0.178 in the series on HeLa Kyoto [3] (cell cycle stage: mitosis).
As to “MGGGDLNLKKSWHPQTLRNVEKVWKAEQKHEAERKKIEELQRELREERAREEMQRYAEDVGAVKKKEEKLDWMYQGPGGMVNRDEYLLGRPIDKYVFEKMEEKEAGCSSETGLLPGSIFAPSGANSLLDMASKIREDPLFIIRKKEEEKKREVLNNPVKMKKIKELLQMSLEKKEKKKKKEKKKKHKKHKHRSSSSDRSSSEDEHSAGRSQKKMANSSPVLSKVPGYGLQVRNSDRNQGLQGPLTAEQKRGHGMKNHSRSRSSSHSPPRHASKKSTREAGSRDRRSRSLGRRSRSPRPSKLHNSKVNRRETGQTRSPSPKKEVYQRRHAPGYTRKLSAEELERKRQEMMENAKWREEERLNILKRHAKDEEREQRLEKLDSRDGKFIHRMKLESASTSSLEDRVKRNIYSLQRTSVALEKNFMKR [CWC25]”, the “solubility in G1/S (log2)” value with HeLa Kyoto [1] is -0.718. Further, the “solubility change mitosis (log2)” value with HeLa Kyoto [2] came out at 0.463. For the same sequence, the thermal stability score is -0.522 in the series on HeLa Kyoto [3] (setting [4]) and -0.488 with HeLa Kyoto [3] (cell cycle stage: mitosis).
In the same order, the values of “MKKSIGILSPGVALGMAGSAMSSKFFLVALAIFFSFAQVVIEANSWWSLGMNNPVQMSEVYIIGAQPLCSQLAGLSQGQKKLCHLYQDHMQYIGEGAKTGIKECQYQFRHRRWNCSTVDNTSVFGRVMQIGSRETAFTYAVSAAGVVNAMSRACREGELSTCGCSRAARPKDLPRDWLWGGCGDNIDYGYRFAKEFVDARERERIHAKGSYESARILMNLHNNEAGRRTVYNLADVACKCHGVSGSCSLKTCWLQLADFRKVGDALKEKYDSAAAMRLNSRGKLVQVNSRFNSPTTQDLVYIDPSPDYCVRNESTGSLGTQGRLCNKTSEGMDGCELMCCGRGYDQFKTVQTERCHCKFHWCCYVKCKKCTEIVDQFVCK [WNT5A]” are -0.0436, -0.0777, -0.194 and 0.339.
The corresponding values for “MKLKLKNVFLAYFLVSIAGLLYALVQLGQPCDCLPPLRAAAEQLRQKDLRISQLQAELRRPPPAPAQPPEPEALPTIYVVTPTYARLVQKAELVRLSQTLSLVPRLHWLLVEDAEGPTPLVSGLLAASGLLFTHLVVLTPKAQRLREGEPGWVHPRGVEQRNKALDWLRGRGGAVGGEKDPPPPGTQGVVYFADDDNTYSRELFEEMRWTRGVSVWPVGLVGGLRFEGPQVQDGRVVGFHTAWEPSRPFPVDMAGFAVALPLLLDKPNAQFDSTAPRGHLESSLLSHLVDPKDLEPRAANCTRVLVWHTRTEKPKMKQEEQLQRQGRGSDPAIEV [B3GAT3]” are 0.166, -0.044, -0.256 and -0.376.
In the same order, the values of “MKLVNIWLLLLVVLLCGKKHLGDRLEKKSFEKAPCPGCSHLTLKVEFSSTVVEYEYIVAFNGYFTAKARNSFISSALKSSEVDNWRIIPRNNPSSDYPSDFEVIQIKEKQKAGLLTLEDHPNIKRVTPQRKVFRSLKYAESDPTVPCNETRWSQKWQSSRPLRRASLSLGSGFWHATGRHSSRRLLRAIPRQVAQTLQADVLWQMGYTGANVRVAVFDTGLSEKHPHFKNVKERTNWTNERTLDDGLGHGTFVAGVIASMRECQGFAPDAELHIFRVFTNNQVSYTSWFLDAFNYAILKKIDVLNLSIGGPDFMDHPFVDKVWELTANNVIMVSAIGNDGPLYGTLNNPADQMDVIGVGGIDFEDNIARFSSRGMTTWELPGGYGRMKPDIVTYGAGVRGSGVKGGCRALSGTSVASPVVAGAVTLLVSTVQKRELVNPASMKQALIASARRLPGVNMFEQGHGKLDLLRAYQILNSYKPQASLSPSYIDLTECPYMWPYCSQPIYYGGMPTVVNVTILNGMGVTGRIVDKPDWQPYLPQNGDNIEVAFSYSSVLWPWSGYLAISISVTKKAASWEGIAQGHVMITVASPAETESKNGAEQTSTVKLPIKVKIIPTPPRSKRVLWDQYHNLRYPPGYFPRDNLRMKNDPLDWNGDHIHTNFRDMYQHLRSMGYFVEVLGAPFTCFDASQYGTLLMVDSEEEYFPEEIAKLRRDVDNGLSLVIFSDWYNTSVMRKVKFYDENTRQWWMPDTGGANIPALNELLSVWNMGFSDGLYEGEFTLANHDMYYASGCSIAKFPEDGVVITQTFKDQGLEVLKQETAVVENVPILGLYQIPAEGGGRIVLYGDSNCLDDSHRQKDCFWLLDALLQYTSYGVTPPSLSHSGNRQRPPSGAGSVTPERMEGNHLHRYSKVLEAHLGDPKPRPLPACPRLSWAKPQPLNETAPSNLWKHQKLLSIDLDKVVLPNFRSNRPQVRPLSPGESGAWDIPGGIMPGRYNQEVGQTIPVFAFLGAMVVLAFFVVQINKAKSRPKRRKPRVKRPQLMQQVHPPKTPSV [MBTPS1]” are 0.0339, -0.198, -1.77 and -1.37.
